Assay results reported in patent publication US20260109776A1 (Amgen, published 2026).

T1: cynomolgus monkey CD40 (cynomolgus monkey, UniProt P25942 21-193 (human entry), limits assumed)
T1 chain: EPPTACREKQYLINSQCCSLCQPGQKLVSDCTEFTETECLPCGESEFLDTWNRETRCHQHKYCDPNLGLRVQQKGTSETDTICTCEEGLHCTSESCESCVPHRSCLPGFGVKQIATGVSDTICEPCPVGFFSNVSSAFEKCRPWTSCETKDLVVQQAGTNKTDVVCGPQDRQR

T2: mouse CD40 on cells (mouse, UniProt P27512 20-289)
T2 construct: whole, on cells; also called mouse CD40 on HEK293 cells; CD40 on mouse B cells
T2 sequence (looked up): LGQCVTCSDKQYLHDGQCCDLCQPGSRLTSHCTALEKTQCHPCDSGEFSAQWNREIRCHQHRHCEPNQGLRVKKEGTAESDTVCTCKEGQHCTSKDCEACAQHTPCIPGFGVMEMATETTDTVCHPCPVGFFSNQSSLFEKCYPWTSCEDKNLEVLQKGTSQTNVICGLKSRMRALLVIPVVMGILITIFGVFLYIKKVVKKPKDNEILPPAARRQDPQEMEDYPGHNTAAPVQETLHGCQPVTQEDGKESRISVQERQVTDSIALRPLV

T3: human TNFR1 (human, UniProt P19438 30-455)
T3 construct: whole, on cells
T3 sequence (looked up): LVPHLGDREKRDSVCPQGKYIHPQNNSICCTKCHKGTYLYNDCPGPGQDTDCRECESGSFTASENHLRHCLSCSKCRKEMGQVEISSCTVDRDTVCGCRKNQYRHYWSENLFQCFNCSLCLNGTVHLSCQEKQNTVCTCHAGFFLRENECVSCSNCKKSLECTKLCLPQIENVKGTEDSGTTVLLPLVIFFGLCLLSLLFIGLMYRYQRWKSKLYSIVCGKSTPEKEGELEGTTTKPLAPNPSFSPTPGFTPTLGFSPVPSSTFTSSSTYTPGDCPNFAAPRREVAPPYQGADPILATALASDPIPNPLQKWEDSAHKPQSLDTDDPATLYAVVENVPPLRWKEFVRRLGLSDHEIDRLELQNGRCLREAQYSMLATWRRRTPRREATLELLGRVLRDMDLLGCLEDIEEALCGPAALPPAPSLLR

T4: human TNFR2 (human, UniProt P20333 23-461)
T4 construct: whole, on cells
T4 sequence (looked up): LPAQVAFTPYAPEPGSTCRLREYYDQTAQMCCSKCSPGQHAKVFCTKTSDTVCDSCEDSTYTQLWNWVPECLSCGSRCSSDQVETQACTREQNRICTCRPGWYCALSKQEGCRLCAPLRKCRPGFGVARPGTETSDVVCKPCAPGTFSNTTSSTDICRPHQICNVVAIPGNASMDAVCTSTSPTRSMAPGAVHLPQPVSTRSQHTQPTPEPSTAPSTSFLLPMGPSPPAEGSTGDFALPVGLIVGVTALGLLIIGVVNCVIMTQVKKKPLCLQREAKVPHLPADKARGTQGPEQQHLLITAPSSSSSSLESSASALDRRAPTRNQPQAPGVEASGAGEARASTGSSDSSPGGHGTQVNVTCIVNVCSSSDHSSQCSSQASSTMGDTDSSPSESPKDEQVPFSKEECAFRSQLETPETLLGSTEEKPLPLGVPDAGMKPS

T5: human TNFR14 (human, UniProt Q92956 39-283)
T5 construct: whole, on cells
T5 sequence (looked up): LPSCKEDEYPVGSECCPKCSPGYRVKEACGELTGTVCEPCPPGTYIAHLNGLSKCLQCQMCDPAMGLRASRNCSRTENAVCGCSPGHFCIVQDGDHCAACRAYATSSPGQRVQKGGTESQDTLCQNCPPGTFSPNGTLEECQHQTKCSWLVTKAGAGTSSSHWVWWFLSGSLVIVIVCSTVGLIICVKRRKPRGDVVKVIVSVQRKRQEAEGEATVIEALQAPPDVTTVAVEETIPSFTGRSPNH

B1: 39C2 (antibody, IgG4, V domains shown)
VH: QVQLVQSGTEVKKPGASVKVSCKASGYTFPGYYMHWVRQAPGQGLEWMGWINPDSGGTKYTQKFQGRVTLTRDASVSTAYIDLNRLRSDDTAVYYCARERCRTTNCYLDYWGQGSLVTVSS
VL: QSALTQPASVSGSPGQSITISCTGTSSDVGNYNLVSWYQQHPGKAPKLMIYEVNRRPSGVSNRFSGSKSGNTASLTISGLQAEDEAEYYCCSYAGRDTFVVFGGGTKLTVLG
notes: also called 4887-1
B2: 36F3 (antibody, IgG4, V domains shown)
VH: QVQLQQSGPGLVKPSQTLSLTCAISGDSVSSSRTAWNWIRQSPSRGLEWLGRTYYRSKWYHDYSVSVKSRITIDPDTSKNQFSLQLNSVTPEDTAVYYCARGAAPFDYWGQGTLVTVSS
VL: EIVLTQSPGTLSLSPGERATLSCRASQSVSSNYLAWYQQKPGQAPRALIYAASNRAAGISDRFSGSGSGTDFTLTISRLEPEDFAVYFCQQYGSSPLTFGGGTKVEIKR
notes: also called 4891-1
B3: 33H6 (antibody, IgG4, V domains shown)
VH: QVQLVQSGAEVKKPGASVKVSCKASGYTFPGYYMYWLRQAPGQGLEWMGWINPDSGDTNYAQKFQGRVTMTRDTSISTAFMELSRLRSDDTAVYYCAREKPRYFDSFYYYLMDVWGQGTTVTVSS
VL: DIQMTQSPSSLSASVGDRVTITCRAGQNISRHLNWYQQNPGKAPKVLIHPASSLPSGVPSRFSGSGSGTDFSLTISSLQPEDFGTYFCQQSYSTPPTFGGGTKVELKR
notes: also called 4883-1
B4: 35F11 (antibody, IgG4, V domains shown)
VH: QVQLVESGGGVVQPGRSLRLSCAASGFTLSSYGMHWVRQAPGKGLEWVAVIWYDGSNKYYADSVKGRVTISRDNSKNTLYLQMNSLRAEDTAVYYCTRDGRNYVYFDNWGQGTLVTVSS
VL: QSALTQPRSVSGSPGQSVTISCTGTSSDVGGYIFVSWYQQHPGKAPKLMIYDVSKRPSGVPDRFSGSKSVNTASLTISGLQAEDETDYYCCSYAGNYTYVFGTGTKVTVLG
notes: also called 4868-1
B5: 37A6 (antibody, IgG4, V domains shown)
VH: QVQLVESGGGLVKPGGSLRLSCAASEFTFSDYYMSWIRQAPGKGLEWVSYISRSGDTIYYADSVKGRFTISRDNAKNSLYLQMNGLRAEDTAVYYCARDLAAGATGGLDCWGQGTLVTVSS
VL: SYELTQPPSVSVSPGQTASITCSGERLGNKYICWYQQKPGQSPVLVIYQDFKRPSGIPERFSGSNSGITATLTISGTQAMDEADYYCQAWDSRTVVFGGGTKLTVLG
notes: also called 4865-1
B6: 29H10 (antibody, V domains shown)
VH: QVQLVQSGAEVTKPGASVKVSCKASGYTFAGYYMHWVRQAPGQGLEWMGWINPHSGGTNYAQKFQDRVTMTRDTSINTAYMELSRLRSDDTAVYYCARERISMVRGVGHNWFAPWGQGTLVTVSS
VL: DIQMTQSPSSLSASVGDRVTITCRASQDISNNLAWFQQKPGKPPKSLMYAASSLHSGVPSTFSGSGSGTDFTFTISSLQPEDFATYYCQQYNSYPLTFGGGTKVEIRR
notes: also called 4877-1

Target: T1, cynomolgus monkey CD40
Assay: Octet
In short: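 Anti-human CD40 antibodies were tested by flow cytometry for binding to HEK293 cells transiently transfected with human TNFR1, TNFR2, TNFR10, TNFR14, or cynomolgus or mouse CD40. Affinity for human and cynomolgus CD40 was measured by Octet, giving Kon, Kdis and KD.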

Binder	Kd	koff	kon
B1	0.73 nM	0.000376 s⁻¹	518000 M⁻¹ s⁻¹
B2	4.02 nM	0.00021 s⁻¹	52200 M⁻¹ s⁻¹
B3	1.04 nM	0.000577 s⁻¹	556000 M⁻¹ s⁻¹
B4	0.62 nM	0.000314 s⁻¹	506000 M⁻¹ s⁻¹
B5	0.73 nM	0.000387 s⁻¹	531000 M⁻¹ s⁻¹
B6	0.39 nM	0.000244 s⁻¹	612000 M⁻¹ s⁻¹

Target: T6, human CD40 on cells (human, UniProt P25942 21-277)
Assay: cell-based or functional assay

T6 sequence (P25942 21-277 limits assumed): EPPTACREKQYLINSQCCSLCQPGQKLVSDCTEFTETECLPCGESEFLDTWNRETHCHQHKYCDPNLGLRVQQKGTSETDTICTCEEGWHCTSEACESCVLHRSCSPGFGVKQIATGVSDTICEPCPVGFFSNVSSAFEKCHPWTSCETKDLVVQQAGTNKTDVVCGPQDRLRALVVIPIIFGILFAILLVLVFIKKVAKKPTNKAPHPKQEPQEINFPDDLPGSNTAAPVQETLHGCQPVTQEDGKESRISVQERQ

Binder	human B cell proliferation, no crosslinking, % Max Activity	human B cell proliferation, no crosslinking, EC50	human B cell proliferation, with protein G crosslinking, % Max Activity	human B cell proliferation, with protein G crosslinking, EC50
B1	6.1%	> 16.7 nM	76.6%	0.21 nM
B2	8.2%	> 16.7 nM	81.9%	0.3 nM
B3	6.5%	> 16.7 nM	73.4%	0.26 nM
B4	4.4%	> 16.7 nM	120%	0.3 nM
B5	0.4%	> 16.7 nM	80.9%	0.3 nM
B6	4.4%	> 16.7 nM	65.9%	0.37 nM

Target: T2, mouse CD40 on cells
Assay: flow cytometry, HEK293 transfectants

Binder	binding result
B1	no binding
B2	no binding
B3	no binding
B4	no binding
B5	no binding
B6	no binding

Target: T3, human TNFR1
Assay: flow cytometry, HEK293 transfectants
Description: (§1) The binding affinity of anti-human CD40 antibodies to human and cynomolgus monkey CD40 was measured by Octet assay (Table 3), quantifying association rate (Kon), disassociation rate (Kdis), and equilibrium binding constant (KD). Cross-reactivity of anti-CD40 antibodies to related TNF receptor superfamily (TNFRSF) members was evaluated by expressing human TNFR1, TNFR2, TNFR10, or TNFR14 on HEK293 cells by transient transfection of expression vectors encoding these genes. Binding of indicated anti-human CD40 antibody to these transfected cells was determined by flow cytometry. […] Cross-reactivity of anti-CD40 antibodies to cynomolgus monkey and mouse CD40 was evaluated by expressing cynomolgus monkey or mouse CD40 on HEK293 cells by transient transfection of expression vectors encoding these genes. Binding of indicated anti-human CD40 antibody to cells overexpressing cynomolgus monkey and mouse CD40 was determined by flow cytometry.

Binder	binding result
B1	no binding
B2	no binding
B3	no binding
B4	no binding
B5	no binding
B6	no binding

Target: T4, human TNFR2
Assay: flow cytometry, HEK293 transfectants
Description: as §1

Binder	binding result
B1	no binding
B2	no binding
B3	no binding
B4	no binding
B5	no binding
B6	no binding

Target: T5, human TNFR14
Assay: flow cytometry, HEK293 transfectants
Description: as §1

Binder	binding result
B1	no binding
B2	no binding
B3	no binding
B4	no binding
B5	no binding
B6	no binding

Target: T6, human CD40 on cells
Assay: flow cytometry, labelled CD40L on CD40-293T cells, antibody at 5 ug/ml
Description: (§2) Percent ligand binding inhibition was calculated as [(CD40L binding gMFI in the absence of anti-CD40)−(CD40L binding gMFI in the presence of anti-CD40)]/(CD40L binding gMFI in the absence of anti-CD40). gMFI: geometric mean fluorescent intensity. All anti-CD40 antibodies show minimal effects on the ability of CD40L to bind to the CD40 receptor (Table 7).

Binder	Ligand Binding Inhibition (%)
B1	-6%
B2	10%
B3	4%
B4	-5%
B5	2%
B6	-8%

Target: T6, human CD40 on cells
Assay: flow cytometry, labelled CD40L on CD40-293T cells, antibody at 10 ug/ml
Description: as §2

Binder	Ligand Binding Inhibition (%)
B1	3%
B2	14%
B3	11%
B4	51%
B5	6%
B6	1%

Target: T6, human CD40 on cells
Assay: flow cytometry, labelled CD40L on CD40-293T cells, antibody at 20 ug/ml
Description: as §2

Binder	Ligand Binding Inhibition (%)
B1	2%
B2	1%
B3	7%
B4	8%
B5	12%
B6	-7%
